Results from patent publication US20060067886A1, “Gastrin receptor-avid peptide conjugates” (priority 1997, published 2006).

Experiment: Biodistribution of radiometal-DOTA-BBN conjugates in CF1 normal mice
Conditions: 1 hour post-injection

Question: With `CSCC[C@H](NC(=O)[C@H](CC(C)C)NC(=O)[C@H](Cc1c[nH]cn1)NC(=O)CNC(=O)[C@@H](NC(=O)[C@H](C)NC(=O)[C@H](Cc1c[nH]c2ccccc12)NC(=O)[C@H](CCC(N)=O)NC(=O)CCCCNC(=O)CN1CCN(CC(=O)O)CCN(CC(=O)O)CCN(CC(=O)O)CC1)C(C)C)C(N)=O` [177Lu-DOTA-5-Ava-BBN[7-14]NH2] [metal not drawn] as the compound, how does the “Avg % ID, Blood” value read?
Answer: 0.35 ± 0.31 % ID

Question: And the “Avg % ID, Carcass” value?
Answer: 2.77 ± 0.75 % ID

Question: And the “Avg % ID, Heart” value?
Answer: 0.04 ± 0.05 % ID

Question: And the “Avg % ID, Kidney” value?
Answer: 0.69 ± 0.33 % ID

Question: What about the “Avg % ID, L. Intestine” value of the same compound?
Answer: 3.52 ± 1.37 % ID

Question: What about the “Avg % ID, Liver” value of the same compound?
Answer: 0.14 ± 0.06 % ID

Question: And the “Avg % ID, Lung” value?
Answer: 0.08 ± 0.15 % ID

Question: And the “Avg % ID, Muscle” value?
Answer: 0.09 ± 0.12 % ID

Question: What about the “Avg % ID, Pancreas” value of the same compound?
Answer: 3.78 ± 1.09 % ID

Question: What about the “Avg % ID, S. Intestine” value of the same compound?
Answer: 3.80 ± 1.87 % ID

Question: What about the “Avg % ID, Spleen” value of the same compound?
Answer: 0.18 ± 0.12 % ID

Question: What about the “Avg % ID, Stomach” value of the same compound?
Answer: 0.73 ± 1.33 % ID

Question: What about the “Avg % ID/gm, Blood” value of the same compound?
Answer: 0.22 ± 0.19 % ID/gm

Question: What about the “Avg % ID/gm, Heart” value of the same compound?
Answer: 0.34 ± 0.35 % ID/gm

Question: What about the “Avg % ID/gm, Kidney” value of the same compound?
Answer: 2.03 ± 1.02 % ID/gm

Question: And the “Avg % ID/gm, L. Intestine” value?
Answer: 3.78 ± 1.23 % ID/gm

Question: What about the “Avg % ID/gm, Liver” value of the same compound?
Answer: 0.09 ± 0.04 % ID/gm

Question: And the “Avg % ID/gm, Lung” value?
Answer: 0.47 ± 0.84 % ID/gm

Question: And the “Avg % ID/gm, Muscle” value?
Answer: 0.67 ± 0.90 % ID/gm

Question: What about the “Avg % ID/gm, Pancreas” value of the same compound?
Answer: 16.41 ± 1.38 % ID/gm

Question: What about the “Avg % ID/gm, S. Intestine” value of the same compound?
Answer: 2.55 ± 1.31 % ID/gm

Question: What about the “Avg % ID/gm, Spleen” value of the same compound?
Answer: 1.26 ± 0.69 % ID/gm

Question: What about the “Avg % ID/gm, Stomach” value of the same compound?
Answer: 1.48 ± 2.25 % ID/gm

Question: For `CSCC[C@H](NC(=O)[C@H](CC(C)C)NC(=O)[C@H](Cc1c[nH]cn1)NC(=O)CNC(=O)[C@@H](NC(=O)[C@H](C)NC(=O)[C@H](Cc1c[nH]c2ccccc12)NC(=O)[C@H](CCC(N)=O)NC(=O)CCCCCCCCCCNC(=O)CN1CCN(CC(=O)O)CCN(CC(=O)O)CCN(CC(=O)O)CC1)C(C)C)C(N)=O` [177Lu-DOTA-11-Aun-BBN[7-14]NH2] [metal not drawn], which “Avg % ID, Blood” value is on record?
Answer: 0.47 ± 0.54 % ID

Question: What about the “Avg % ID, Carcass” value of the same compound?
Answer: 6.69 ± 2.48 % ID

Question: And the “Avg % ID, Heart” value?
Answer: 0.19 ± 0.29 % ID

Question: What about the “Avg % ID, Kidney” value of the same compound?
Answer: 1.76 ± 0.25 % ID

Question: What about the “Avg % ID, L. Intestine” value of the same compound?
Answer: 5.03 ± 0.46 % ID

Question: What about the “Avg % ID, Liver” value of the same compound?
Answer: 2.26 ± 0.46 % ID

Question: What about the “Avg % ID, Lung” value of the same compound?
Answer: 0.17 ± 0.22 % ID

Question: And the “Avg % ID, Muscle” value?
Answer: 0.11 ± 0.18 % ID

Question: And the “Avg % ID, Pancreas” value?
Answer: 6.89 ± 1.20 % ID

Question: What about the “Avg % ID, S. Intestine” value of the same compound?
Answer: 17.10 ± 3.60 % ID

Question: And the “Avg % ID, Spleen” value?
Answer: 0.24 ± 0.24 % ID

Question: And the “Avg % ID, Stomach” value?
Answer: 0.64 ± 0.35 % ID

Question: What about the “Avg % ID/gm, Blood” value of the same compound?
Answer: 0.78 ± 1.10 % ID/gm

Question: And the “Avg % ID/gm, Heart” value?
Answer: 1.56 ± 2.40 % ID/gm

Question: And the “Avg % ID/gm, Kidney” value?
Answer: 4.97 ± 0.61 % ID/gm

Question: What about the “Avg % ID/gm, L. Intestine” value of the same compound?
Answer: 6.31 ± 0.86 % ID/gm

Question: And the “Avg % ID/gm, Liver” value?
Answer: 1.65 ± 0.29 % ID/gm

Question: What about the “Avg % ID/gm, Lung” value of the same compound?
Answer: 0.73 ± 0.81 % ID/gm

Question: What about the “Avg % ID/gm, Muscle” value of the same compound?
Answer: 0.75 ± 1.12 % ID/gm

Question: What about the “Avg % ID/gm, Pancreas” value of the same compound?
Answer: 35.48 ± 2.39 % ID/gm

Question: And the “Avg % ID/gm, S. Intestine” value?
Answer: 12.58 ± 1.73 % ID/gm

Question: And the “Avg % ID/gm, Spleen” value?
Answer: 1.78 ± 1.87 % ID/gm

Question: What about the “Avg % ID/gm, Stomach” value of the same compound?
Answer: 1.82 ± 1.12 % ID/gm

Question: Which “Avg % ID, Blood” value does the source give for `CSCC[C@H](NC(=O)[C@H](CC(C)C)NC(=O)[C@H](Cc1cnc[nH]1)NC(=O)CNC(=O)[C@@H](NC(=O)[C@H](C)NC(=O)[C@H](Cc1c[nH]c2ccccc12)NC(=O)[C@H](CCC(N)=O)NC(=O)CCNC(=O)CN1CCN(CC(=O)O)CCN(CC(=O)O)CCN(CC(=O)O)CC1)C(C)C)C(N)=O` [177Lu-DOTA-β-Ala-BBN[7-14]NH2] [metal not drawn] here?
Answer: 0.24 ± 0.25 % ID

Question: What about the “Avg % ID, Carcass” value of the same compound?
Answer: 2.73 ± 1.08 % ID

Question: What about the “Avg % ID, Heart” value of the same compound?
Answer: 0.05 ± 0.08 % ID

Question: What about the “Avg % ID, Kidney” value of the same compound?
Answer: 0.63 ± 0.14 % ID

Question: What about the “Avg % ID, L. Intestine” value of the same compound?
Answer: 0.36 ± 0.17 % ID

Question: What about the “Avg % ID, Liver” value of the same compound?
Answer: 0.21 ± 0.09 % ID

Question: And the “Avg % ID, Lung” value?
Answer: 0.04 ± 0.06 % ID

Question: What about the “Avg % ID, Muscle” value of the same compound?
Answer: 0.11 ± 0.18 % ID

Question: What about the “Avg % ID, Pancreas” value of the same compound?
Answer: 0.32 ± 0.07 % ID

Question: What about the “Avg % ID, S. Intestine” value of the same compound?
Answer: 0.64 ± 0.20 % ID

Question: And the “Avg % ID, Spleen” value?
Answer: 0.05 ± 0.04 % ID

Question: And the “Avg % ID, Stomach” value?
Answer: 0.13 ± 0.09 % ID

Question: What about the “Avg % ID/gm, Blood” value of the same compound?
Answer: 0.16 ± 0.17 % ID/gm

Question: And the “Avg % ID/gm, Heart” value?
Answer: 0.43 ± 0.70 % ID/gm

Question: And the “Avg % ID/gm, Kidney” value?
Answer: 1.88 ± 0.37 % ID/gm

Question: And the “Avg % ID/gm, L. Intestine” value?
Answer: 0.45 ± 0.19 % ID/gm

Question: And the “Avg % ID/gm, Liver” value?
Answer: 0.15 ± 0.06 % ID/gm

Question: And the “Avg % ID/gm, Lung” value?
Answer: 0.23 ± 0.33 % ID/gm

Question: And the “Avg % ID/gm, Muscle” value?
Answer: 0.94 ± 1.54 % ID/gm

Question: And the “Avg % ID/gm, Pancreas” value?
Answer: 1.44 ± 0.26 % ID/gm

Question: What about the “Avg % ID/gm, S. Intestine” value of the same compound?
Answer: 0.49 ± 0.10 % ID/gm

Question: What about the “Avg % ID/gm, Spleen” value of the same compound?
Answer: 0.31 ± 0.31 % ID/gm

Question: What about the “Avg % ID/gm, Stomach” value of the same compound?
Answer: 0.34 ± 0.18 % ID/gm

Same assay, conditions: CF-1, mouse, in vivo, iv, total radioactivity, Avg % ID/gm, Stomach, 1 hour post-injection

Question: With `CSCC[C@H](NC(=O)[C@H](CC(C)C)NC(=O)[C@H](Cc1cnc[nH]1)NC(=O)CNC(=O)[C@@H](NC(=O)[C@H](C)NC(=O)[C@H](Cc1c[nH]c2ccccc12)NC(=O)[C@H](CCC(N)=O)NC(=O)CCCCCCCNC(=O)CN1CCN(CC(=O)O)CCN(CC(=O)O)CCN(CC(=O)O)CC1)C(C)C)C(N)=O` [149Pm-DOTA-8-Aoc-BBN[7-14]NH2] as the compound, how does the tissue uptake at 1 h read?
Answer: 1.16 ± 0.59 %ID/g
